From PMC12804832

Target: T1, Msn2 DBD (Saccharomyces cerevisiae, UniProt P33748 643-704)
T1 sequence: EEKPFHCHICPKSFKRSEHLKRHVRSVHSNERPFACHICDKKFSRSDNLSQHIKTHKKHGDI
Test: EMSA

B1: 51 bp DNA without motif (dsDNA)
DNA 1: CCTGCCACCTACACATACTTCCTACACAACCTGAGTCGTATTAATTTCGCG
DNA 2: CGCGAAATTATACGACTCAAGTTGTGTAGGAAGTATGTGTAGGTGGCGAGG
B1: no binding.
